Reference: article PMC3401474

Columns and labels:
Assay in all cases: SPR
rat HER2 (rHER2) = rat HER2 (rHER2) (rat, UniProt P06494 23-654)
human HER2 (hHER2) = human HER2 (hHER2) (human, UniProt P04626 23-652)
human EphA2 (hEphA2) = human EphA2 (hEphA2) (human, UniProt P29317 24-537)
Sequence of human EphA2 (hEphA2) (P29317 24-537): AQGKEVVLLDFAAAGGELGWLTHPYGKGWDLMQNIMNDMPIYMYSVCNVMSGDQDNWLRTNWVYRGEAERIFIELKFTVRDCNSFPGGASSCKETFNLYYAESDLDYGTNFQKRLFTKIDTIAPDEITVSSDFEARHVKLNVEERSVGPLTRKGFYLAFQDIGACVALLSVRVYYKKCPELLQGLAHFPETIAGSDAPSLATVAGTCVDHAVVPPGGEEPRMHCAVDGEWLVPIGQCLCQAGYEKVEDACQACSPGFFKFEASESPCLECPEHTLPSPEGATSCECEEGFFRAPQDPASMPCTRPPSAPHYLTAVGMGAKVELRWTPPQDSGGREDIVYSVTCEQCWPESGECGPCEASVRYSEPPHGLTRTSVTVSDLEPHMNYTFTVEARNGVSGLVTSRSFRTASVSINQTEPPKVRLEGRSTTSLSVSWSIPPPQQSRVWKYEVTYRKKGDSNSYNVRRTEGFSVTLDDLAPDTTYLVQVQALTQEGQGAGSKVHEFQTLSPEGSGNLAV

Sequence of rat HER2 (rHER2) (P06494 23-654): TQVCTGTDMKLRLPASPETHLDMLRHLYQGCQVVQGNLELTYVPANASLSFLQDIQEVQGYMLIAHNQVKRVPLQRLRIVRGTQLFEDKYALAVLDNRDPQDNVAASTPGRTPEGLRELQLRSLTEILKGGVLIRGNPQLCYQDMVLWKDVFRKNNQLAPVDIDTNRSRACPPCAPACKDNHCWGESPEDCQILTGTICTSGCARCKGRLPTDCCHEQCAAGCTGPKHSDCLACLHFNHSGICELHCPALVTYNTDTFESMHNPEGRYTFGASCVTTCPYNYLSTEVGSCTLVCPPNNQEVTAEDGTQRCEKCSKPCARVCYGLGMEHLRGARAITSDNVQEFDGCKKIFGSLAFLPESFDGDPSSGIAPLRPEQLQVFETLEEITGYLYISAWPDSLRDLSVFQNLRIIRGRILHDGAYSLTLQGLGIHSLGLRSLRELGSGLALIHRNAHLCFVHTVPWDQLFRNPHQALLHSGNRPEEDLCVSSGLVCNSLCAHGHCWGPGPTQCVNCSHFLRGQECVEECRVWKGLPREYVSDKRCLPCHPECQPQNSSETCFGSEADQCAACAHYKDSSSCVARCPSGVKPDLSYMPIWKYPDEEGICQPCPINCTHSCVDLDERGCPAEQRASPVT

B1: C1 (XNA)
RNA: GGGAGGACGAUGCGGCUGUCUACCUUCUACUGCCGCAGACGACUCGCCCGA
modifications: 2'-fluoro C and U (2'-OH A and G)
B1 was tested, and the Kd (rat HER2 (rHER2)) was 45.8 nM, the binding result (human HER2 (hHER2)) was “no binding” and the binding result (human EphA2 (hEphA2)) was “no binding”.

B2: E1 (XNA)
RNA: GGGAGGACGAUGCGGUCCUGUCGUCUGUUCGUCCCCAGACGACUCGCCCGA
modifications: 2'-fluoro C and U (2'-OH A and G)
B2 was tested, and the Kd (rat HER2 (rHER2)) was 60.8 nM.

B3: B1 (XNA)
RNA: GGGAGGACGAUGCGGUCUGUUGUGCUUGAUAUGCCCCAGACGACUCGCCCGA
modifications: 2'-fluoro C and U (2'-OH A and G)
For B3, the Kd (rat HER2 (rHER2)) was 85.2 nM, the binding result (human HER2 (hHER2)) was “no binding” and the binding result (human EphA2 (hEphA2)) was “no binding”.
